Assay results as given in publication PMC2926616 (Nucleic Acids Research, 2010).

Columns and labels:
Human RAD51 = molecular target: T1, Human RAD51 (human, UniProt Q06609 1-339); experiment: pull-down
T1 sequence (looked up): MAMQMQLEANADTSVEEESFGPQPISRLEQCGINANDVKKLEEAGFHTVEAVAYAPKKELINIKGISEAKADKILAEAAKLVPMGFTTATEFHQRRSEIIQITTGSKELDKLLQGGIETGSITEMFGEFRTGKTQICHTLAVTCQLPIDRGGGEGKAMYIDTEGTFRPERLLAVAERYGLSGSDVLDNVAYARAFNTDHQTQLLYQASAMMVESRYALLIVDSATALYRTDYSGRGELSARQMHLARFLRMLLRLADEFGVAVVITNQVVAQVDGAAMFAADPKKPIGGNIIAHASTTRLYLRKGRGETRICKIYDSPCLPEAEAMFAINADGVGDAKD

RAD51 = RAD51 (human, UniProt Q06609 1-339); experiment: EMSA

Binder	binding result (Human RAD51)	binding result (RAD51)
Human GEMIN2 (natural protein, UniProt O14893 1-280, looked up) MRRAELAGLKTMAWVPAESAVEELMPRLLPVEPCDLTEGFDPSVPPRTPQEYLRRVQIEAAQCPDVVVAQIDPKKLKRKQSVNISLSGCQPAPEGYSPTLQWQQQQVAQFSTVRQNVNKHRSHWKSQQLDSNVTMPKSEDEEGWKKFCLGEKLCADGAVGPATNESPGIDYVQIGFPPLLSIVSRMNQATVTSVLEYLSNWFGERDFTPELGRWLYALLACLEKPLLPEAHSLIRQLARRCSEVRLLVDSKDDERVPALNLLICLVSRYFDQRDLADEPS	binds	
49-mer dsDNA (dsDNA) DNA 1: GTCCCAGGCCATTACAGATCAATCCTGAGCATGTTTACCAAGCGCATTG DNA 2: CAATGCGCTTGGTAAACATGCTCAGGATTGATCTGTAATGGCCTGGGAC		binds
